This series is described as follows: soluble on expression in E. coli; label from the status in PepcDB or PDB records.
Take “GPGSMRSQRVLQRTRKQKMESSSCASAPIAVDAQDVVVPPAVAQARAWLSLYGACCTEEEVEMHPVVLSRVLQAVELVQSRSCLSSGSEGPLAATTTKHTCRSGEGDAEAATARSSPTALHEGDDSKRGKGEAGLSIDFGGLWMLLSEWIAILRSLVATVPLHTLSLRDTALGDAGLRCLCRQVATTSVKPASLEVASRCEACSFHLLGLSTLAAPPSCPPTIPGSWAASTLRLLDLSGAALTDGGPLASLLASCPQLHSLNLSDNSLGSRDAGLALLCAALQVHPSLEVLSLRRNCISGSRNGPAIAALAELIVARSVEGSRTLSKACGYGSALCRQQTPAAAAVAAQPLRRLDLSHNLLGTYFLLSDATMTHRAEAGRPSAAREYDMASSSGRHVGVHEAVASFPLVAALYLNNTLIELNLHNNGLPGALLEYVEAKLHVNQRTTGGGADFSKTVSTEIIASTTVRQVLIHRLRCTLDHILAGTANASGMVGATHTERGDAPPTEVPAESQSSVLSAAERRWTTGEVSELVQRLVYNVASDLSLF”: the “soluble on expression in E. coli” value is listed as “not soluble”.

Take “MSTDEWRTERDPLVSQDRFLWEKVCCTIIPLHKKRYSSFAKEVVNVSKDAVKINNKKQYITQILPLSQANQQKLTEVKREKKAIAQTHKIHFFDRVVHRKIAKGHYSIEARLDLHGCMQEEAYFFLKKFLQSSQQNGLRYVLVITGKGRSPGSNGVLYQSVPHWLSTPAFRYYVHAFEQAARQHGGDGALYVRLRRFLPGKGYDVV”: the “soluble on expression in E. coli” value was “not soluble”.

As for “MRLNIVVVGVGGQGALTTSGIIARAAMRAGLNVVTAETHGMAQRGGSVEVHVRIGDVRAPLIPEGGADVMIALEPAEALRYAKFLNKNTLVILNTRKIIPPSVTAGTAKYPELDEIIGELRKVTPRVIPVNASEIAEKAGSVLATNVVVVGMLFGYYSMPFGIEHVEEAIRETMKSKIVDLNLKALKMGYNQAI”, the “soluble on expression in E. coli” value is given as “not soluble”.

With “MGSDKIHHHHHHMSSHLAHGMGTEPVEPDWPPLTEAEVADVVGPSRVVWRSPRPLSAAAVVERGGRRLFVKRHHLSVRTPEGLAEEHAFLRHLRERGAPVVEVLDVATRQEWVYEVHSAGLGTDLYRDDLSWSPFRSSTHARAAGAALARLHLAADGFEAPRRIPQPLVASFTIFAADDPGTALERYVAERPALAGALADHPWRADTRRVLLPLFERLAPHLPLLEPLWTHNDWHASNLLWDASGEVSTVLDFGMSDRTTAVHDLATAIERNAVQWLQPGFPVREQDVDALLDGYQSVRPLTVSESAALPELLPLVHAEFALSEMGYFHGITGSAENTRLAYAYLVDHAEWFTGDAGSHLVDRVRHRAAAAPKPPPAGRPLSDASS”, the “soluble on expression in E. coli” value was “not soluble”.

Regarding “YCTLADLQLAIPQATLTQLTNDVPADYSVAQEPNLAVVEEAVRQAEELVDAHLRGRYVLPLVTVPSVIKDNTVNLARHWLYARRPEGNELPDAVTRTYKAALQILESIRDGKLHIGVPTGEAAPEPGEVRVRARRQLFSASM”, the “soluble on expression in E. coli” value is “not soluble”.

Regarding “MGSQAAHMMSMDFEDFPVESAHRILTPRPTVMVTTVDEEGNINAAPFSFTMPVSIDPPVVAFASAPDHHTARNIESTHEFVINITPADIIERMWVTARDIPAGENELEAAGLAWTSSRRVKPPRIVEAPGHLECELLRMFEVGDHNLITGSVVSASVRSGAVKEGLLDVESVKPVLHVGGNKFVVGDHVRHVE”, the “soluble on expression in E. coli” value is “soluble”.

Regarding “GPGSMQAIITTAKSFAGDEKRPRDVKAAAAAPVLDWATMYTRRPAGTSTLFTLEAMVAKRMELLAWIDQLMNSPNVRSFSVVLDEIGARLPIERRKHVTQHAADHVVVLGRDDSPAADDADSFRTPRLSVSRSSGSAALNAFVFEGDEDLISHLLARFAFCMSEQWRKWFVKTEEALLRARLKLQMAKYETDFLPSLMRDNGLPCDPLSDEQWQDPLLQEYIVYFAVFQGKQQSRSREDYFSVPMTLATRLIKTRSVLCLKGHAILHRDQAQEVFVTVFRSKLNKGLHEAYLARMRLTSNEEDEERETVMRMLDAFLEYFVSDPTSAIQEAASGAVSAGEVRRIAQTHFPLCMRQVDEHLRREGHLKHHGRFTYGLFLKAIGLSLQDSMTLFSSLMTVKGVAGNSEAFAKTAYGYNIRHNYGMEGKKTSYSSMSCATLLALPPVVDRFDCHGCPFRFKDEGAFRSMLLKEQLNPLGKEHPPLRPSASDIEEIVQDCKGQHYTRACYKYFVATHPGVKRDTLFRSPFEYYTLSREVGERPEEILSEQTTPARRLMTGDSLKRSMFTPTLKEDVIRERKSPP”, the “soluble on expression in E. coli” value is reported as “not soluble”.

Regarding “MRSLIGMTFLNSSVGQRRLRQNGIVLRLGPVVADRRRATLPHRQGHCLDRQDLETLLLWLQRHFLCVPLEHLLEGPAPACLRIALSVDGNPAELAEQVYPLLERYEMPASAFIGGDPRSWREAVAETLWQADATAAGPLLELLEGYSGAALMAVFERTGDDQRRSRNLDLLLRKLERLDPASQQALHAACPVPAPYSAGDWERVRRLENSGLLRFGLRGQEPHPSAGLCAEDCLGRAHRQLQQHCAAPLPVFCQARTTPAAQPGLRAALGRLGYRFAFGARNGLVDTRCDPLDLPRIEVDAAIAARPGRLAWHIYRGARP”, the “soluble on expression in E. coli” value is reported as “not soluble”.

In the case of “TQHIESHTHVVSLEEIPVERNLAQLTGWTEGAPVWRLVRQREIEGEVDILDIDYLIKEIVPELPKHRAEDSIFDYLENDLGLAISYAQKEITVEPLTEMDKQLIGEVEGNHVVVVRSIMNLEDTRCFGYTESRHRLNKFKFVEFARRRKL”, the “soluble on expression in E. coli” value is “soluble”.

For the sequence “MGHHHHHHQQIMKGNFSSFMQKEIFEQPESVVNTMRGRVNFDDYTVNLGGLKDHIKEIQRCRRLILIACGTSYHAGVATRQVLEELTELPVMVELASDFLDRNTPVFRDDVCFFLSQSGETADTLMGLRYCKERGALTVGITNTVGSSISRETDCGVHINAGPEIGVASTKAYTSQFVSLVMFALMMCDDRISMQERRKEIMLGLKRLPDLIKEVLSMDDEIQKLATELYHQKSVLIMGRGYHYATCLEGALKIKEITYMHSEGILAGELKHGPLALVDKLMPVIMIIMRDHTYAKCQNALQQVVARQGRPVVICDKEDTETIKNTKRTIKVPHSVDCLQGILSVIPLQLLAFHLAVLRGYDVDFPRNLAKSVTVE”, the “soluble on expression in E. coli” value was “soluble”.

Take “VEPVDPCFRANCEYQCQPLNQTSYLCVCAEGFAPIPHEPHRCQLFCNQTACPADCDPNTQASCECPEGYILDDGFICTDIDECENGGFCSGVCHNLPGTFECICGPDSALAGQIGTDCDSG”: the “soluble on expression in E. coli” value was “soluble”.

On to “MFQAINASGSGLTTARKWMQVTSNNIVNANTPAAPGADLYERRSVVLESNNSFASMLDGAPTNGVKIKSIEADKTENLVYDPTHPHANEEGYVRYPNIDVTAEMTNVMVAQKMYEANTSVLNANKKMLDKDLEIGRG”, for which the “soluble on expression in E. coli” value is given as “not soluble”.

In the case of “MDSMDHRIERLEYYIQLLVKTVDMDRYPFYALLIDKGLSKEEGEAVMRICDELSEELATQKAQGFVTFDKLLALFAGQLNEKLDVHETIFALYEQGLYQELMEVFIDIMKHFD”, the “soluble on expression in E. coli” value is on record as “soluble”.

For “AHHHHHHGSINNAQPPIYEEGLEELMQELKGKYHATNDYRWAILNSDITFITVGTPSKPDGSIDLTHVKQAAKSIGKALRDKEDYHVVVVKSTVLPGTTEEVVKPILEKHSGKKAFKDFGLAMNPEFLREGVALKDFLNPDRIVLGVQDEKTKKILEELYEPINAPKLIVDIKTAEMIKYASNAFLATKISFANEIGNICKKLGIDSWKVFEGVGLDHRISPHFFKTGIGFGGSCFPKDVKALIKKAEEIGENPLILKAVIEVNERQPLKMIELLKKHIPELKGRKIGVLGLAFKPNTDDVRETRAYIIIKKLLEEGASVIAYDPKAMENFKRFYPDVSGGIEYATSPEDVLKSTEIILIVTEWPDFEELDYSGKIVIDGRRIKAAERTARIYEGVCW”, the “soluble on expression in E. coli” value is “soluble”.

In the case of “GSPELGFSISGGVGGRGNPFRPDDDGIFVTRVQPEGPASKLLQPGDKIIQANGYSFINIEHGQAVSLLKTFQNTVELIIVREVGNGAKQEIRVRVEKDGGSGGVSSVPTNLEVVAATPTSLLISWDAYRELPVSYYRITYGETGGNSPVQEFTVPGSKSTATISGLKPGVDYTITVYAHYNYHYYSSPISINYRT”, the “soluble on expression in E. coli” value is “soluble”.

With “MAAPPSPGRTADQADQVCTFLFKKPGRKGAAGLRKRPACDPEHGESSSSGDEGDTVAQPPRVAPRPRGLHSWQKAAHGDRRGEEAAPESLDVVYRSTRSAKPVGPEDMGATADFEQDTEKEHHTPTILKCSQRVQEALRGREHDHIYRGIHSYLRYLKPKDTSMGNSSSGMARKGPIRAPGHLRATVRWDYQPDICKDYKETGFCGFGDSCKFLHDRSDYKLGWEIERELEEGRYCICEDENHEVGSEEEEIPFRCFICRQAFQNPVVTKCRHYFCESCALEHFRATPRCYICDQPTGGIFNPAKELMAKLQKLQAAEGKKR”, the “soluble on expression in E. coli” value is recorded as “soluble”.

For “MNDSSLKKALSQNSISSAPRRPQKLGSVQSIVRNESDKNVPSPFEEITLSDDDEEAPAKKPVKCATCARDMTLWMNSRRDIHVKVCKAKQSEKEKETTRKSKTLTETIEKDDQVYEKPSSKTHLFEKPFEKPQELPKSWELSKNNVKFARIAEDDEENRKRKRPRSFAVVELAPKKCQCEVLTTLHSRFIDEFHSKSIKNQKKREEGVTEHAFQMKKMIEKISRYEQLSSDMQKVLDDNSEQLPTHIFITCSDGHRVKCQTMILKHRTSLIRLNPKSENIQVEHTKEVVKAWISFVFTANIEWNDDDKDGVRDLASKYGPVGLDLIVKNDKEEDLEKVDDVEDVVEPEAKIDSVVADPVEIEPTASHSDPIELDKSVNYFTSDDPFFGFGKAVENVEDDAEQIMEDKPHESVHSTPQKPTTNVTMDSFDEWSNQPSTNLPTTSNVITPIRNITSKAVFGSHVKILKTNDITPMPAFDSMEEAELKERMKEIGMRPKGKKAMIQILKKAYITLHPEICSGTPTIRPLVRSASLEKVSEQGGKGGRKTIKTKTLSERMIASPKKVSPKKQGVKNAISDETSKNVSNVSDDLDEDNDGDKTLNISNDEREVGKIWGDDVGDDEEDDDDMSASSTSGKHDLSALKLAFLTWLRSDQNTVLHEHILSLQPVSLEEMLIRLEKADGPLGRIGKGKLVKLLEMLKITYQLPQKTGRARGGYKRRL”, the “soluble on expression in E. coli” value is reported as “not soluble”.

In the case of “MKRAPFLCKQSPDRTLEVVILAGSLAWETSRVWRKDPDREDDVPPMVLGPNELADLSNLTIIRPDTLYVRVLRTGDISEEDLLKIAVKLAHAGVQMARLMSPDGELLENWTGQLERLRQERPSDILPDHFRLDEEALWFDKLTERRDGESDVQPQRICSPLRVTAITCDSHDGSYGRLLEWHTTTGQLRRWAMPMAMLSGNGEELRRILLENGLTNISTRPALRSLLCEYISRSLPGRRVTCVEKTGWHNGVYVLPDEVIGPDGDNVILQGSHYLTGGFAQAGTLAEWQEQVAALCAGNSRLVFAVCCALAAPLLRLTGTGGGGFHLRGESTDGKTTVMKVAASVCGGTDYWHSWRATGNALEGIASRHNDALLPLDELREVDPREAGMIAYMLANGQGKGRARTDGEVRNRRHWTLLLEHHHHHH”, the “soluble on expression in E. coli” value is reported as “not soluble”.

On to “MFLSRGFNAFIAKPIDVMQLDAVLNTWVRDRKSIEILKQAEMIAPLIIENANQNIFDSVQIEGLDLVRGKKKYNNDAAYLDILRSWHKHTPALLEKMRNPVFENLSEYAITVHGIKGASLGICADEISSKAEELEHYAKSGNIGKVQADNSMFIGMAESLLANIGELLEKFDVGKKEKPKKHAPDPALLDRLLEAAKSYKSTLMEETMCSIESYDYDSDMELVTWLRQQMDDLEYDAIRQKLESRMPGFVET”, for which the “soluble on expression in E. coli” value is listed as “not soluble”.

The values above are taken from the DeepSol protein solubility set.
